Laboratory results published in patent WO2021228904A1 (dated 2021).

Each binder was assayed against T1, stabilized prefusion SARS-CoV-2 S ectodomain (SARS-CoV-2 (Wuhan-Hu-1), UniProt P0DTC2 15-1138) (assay: cell-based or functional assay).

| Binder | IC50, neutralization of live SARS-CoV-2 virus [pM] |
| --- | --- |
| COVA1-18 (antibody, V domains shown) VH: EVQLVESGGGLVQPGGSLRLSCAASGFTVSSNYMSWVRQAPGKGLEWVSVIYSGGSTYYADSVKGRFTISRDNSKNTLYLQMNSLRAEDTAVYYCARVEWAAAGTFYWGQGTLVTVSS VL: QSALTQEPSLTVSPGGTVTLTCGSSTGAVTSGHYPYWFQQKPGQAPRTLIYDTSNKRSWTPARFSGSLLGGKAALTLSGAQPEDEAEYYCLLSYSGVWVFGGGTKLTVL | 67 |

What follows are binders tested against T1, stabilized prefusion SARS-CoV-2 S … (assay: SPR).

| Binder | Kd [pM] |
| --- | --- |
| COVA1-18 (antibody, V domains shown) VH: EVQLVESGGGLVQPGGSLRLSCAASGFTVSSNYMSWVRQAPGKGLEWVSVIYSGGSTYYADSVKGRFTISRDNSKNTLYLQMNSLRAEDTAVYYCARVEWAAAGTFYWGQGTLVTVSS VL: QSALTQEPSLTVSPGGTVTLTCGSSTGAVTSGHYPYWFQQKPGQAPRTLIYDTSNKRSWTPARFSGSLLGGKAALTLSGAQPEDEAEYYCLLSYSGVWVFGGGTKLTVL | ≤ 1000 |
| SEQ ID NOs: 405/409 (HCVR/LCVR) (antibody, V domains shown) VH: EVQLVESGAEVKKPGASVKVSCKVSGYTLPELSMHWVRQTPGKGLEWMGGFDPEDGETIYAQKFQGRVTMTEDTSTDTAYMELSSLRSEDTAVYYCATGPTIAAAATNWFDPGGQGTLVTVSS VL: QPVLTQPASVSGSPGQSITISCTGTSSDVGGYNYVSWYQQHPGKAPKLMIYDVSNRPSGVSNRFSGSRSGDTASLTISGLQAEDEADYYCSSYTSSSTWVFGGGTKLTVL | ≤ 1000 |

These binders were tested against T1, stabilized prefusion SARS-CoV-2 S … (assay: not named there; ELISA in Example 4).

| Binder | binding result |
| --- | --- |
| SEQ ID NOs: 65/69 (HCVR/LCVR) (antibody, V domains shown) VH: QLQLVESGPGLVKPSETLSLTCTVSGGSISSYFWSWIRQPPGKGLEWIGYIYYSGSTNYNPSLKSRVTISVDTSKNQFSLKLSSVTAADTAVYYCARHSQGWLQQAVAFDIWGQGTMVTVSS VL: not shown | binds |
| 002_P2C4 (antibody, V domains shown) VH: QVQLVESGAEVKKPGSSVKVSCKASGGTFSSYGINWVRQAPGQGLEWMGGIIPIFGTANYAQKFQGRVTITTDESTSTAYMELSSLRSEDTAVYYCASFGDDSGDEGVRWGQGTLVTVSS VL: EIVMTQSPATLSLSPGERATLSCRASQSVSSYLAWYQQKPGQAPRLLIYDASNRATGIPARFSGSGSGTDFTLTISSLEPEDFAVYYCQQRSNWPPYTFGQGTKVEIK | binds |
| SEQ ID NOs: 581/585 (HCVR/LCVR) (antibody, V domains shown) VH: EVQLVESGGGLVQPGRSLRLSCAASGFTFDDYAMHWVRQAPGKGLEWVSGISWNSGSIGYADSVKGRFTISRDSAKNSLYLQMNSLRAEDTALYYCAKVATYYYDRSGYYYGGALDYWGQGTLVTVSS VL: not shown | binds |
| SEQ ID NOs: 637/641 (HCVR/LCVR) (antibody, V domains shown) VH: QVQLVESGGGLVQPGRSLRLSCAASGFTFDDYAMHWVRQAPGKGLEWVSGISWNSGSIGYADSVKGRFTISRDNAKNSLYLQMNSLRAEDTALYYCAKAEPEVGGYDYYMDVWGKGTMVTVSS VL: not shown | binds |
| SEQ ID NOs: 353/357 (HCVR/LCVR) (antibody, V domains shown) VH: EVQLVQSGAEVKKPGSSVKVSCKASGGTFSSYAISWVRQAPGQGLEWMGGIIPIFGTTNYAQKFQGRVTITTDESTSTAYMELSSLRSEDTAVYYCARVYSYDSSGYYLEYWGQGTRVTVSS VL: EIVLTQSPATLSLSPGERATLSCRASQSVSSYLAWYQQKPGQAPRLLIYDASNRATGIPARFSGSGSGTDFTLTISSLEPEDFAVYYCQQRSNWPPSITFGQGTRLEIK | binds |
| SEQ ID NOs: 461/465 (HCVR/LCVR) (antibody, V domains shown) VH: EVQLVESGAEVKKPGSSVKVSCKASGGTFSSYAISWVRQAPGQGLEWMGGIIPIFGTANYAQKFQGRATITTDESTSTAYMELSSLGSEDTAVYYCARTHSYDNSGQYFDYWGQGTMVTVSS VL: DIVMTQSPATLSLSPGERATLSCRASQSVSSFLAWYQQKPGQAPRLLIYDASNRATGIPARFSGSGSGTDFTLTISSLEPEDFAVYYCQQRSNWPPRLTFGGGTKVDIK | binds |
| SEQ ID NOs: 509/513 (HCVR/LCVR) (antibody, V domains shown) VH: QVQLQQSGPGLVKPSETLPLTCTVSGGSISSSSYYWGWIRQPPGKGLEWIGSVFYSGSTYYNPSLKSRVTISVDTSKNQLSLKLSSVTAADTAVYYCARQVRQWLEDDAFDIWGQGTMVTVSS VL: DIQLTQSPSSLSASVGDRVTITCRASQGIRNDLGWYQQKPGKAPKRLIYAASSLQSGVPSRFSGSGSGTEFTLTISSLQPEDFATYYCLQHNSYPLTFGGGTKVDIK | binds |
| SEQ ID NOs: 549/553 (HCVR/LCVR) (antibody, V domains shown) VH: QVQLVQPGAEVKKPGASVKVSCKASGYTFTSYGISWVRQAPGQGLEWMGWISAYNGDTNYAQKLQGRVTMTTDTSTSTAYMELRSLKSDDTAVYYCARFDYGYPYSSWSVLSIDYWGQGTLVTVSS VL: DIVMTQSPSSLSASVGDRVTITCRASQGIRNDLGWYQQKPGKAPKRLIYAASSLQSGVPSRFSGSGSGTEFTLTISSLQPEDFATYYCLQHNSYPLTFGGGTKLEIK | binds |
| SEQ ID NOs: 653/657 (HCVR/LCVR) (antibody, V domains shown) VH: EVQLVESGGGLVQPGRSLRLSCAASGFTFDDYAMHWVRQAPGKGLEWVSGISWNSGSIGYADSVKGRFTISRDNAKNSLYLQMNSLRAEDTALYYCAKMGPDPAHDYGRKNDAFDIWGQGTMVTVSS VL: DIVMTQSPSSLSASVGDRVTITCRASQSMSSYLNWYQQKPGKAPKLLIYAASSLQSGVPSRFSGSGSGTDFTLTISSLQPEDFATYYCQQSYSTLTFGGGTKLEIK | binds |
| SEQ ID NOs: 41/45 (HCVR/LCVR) (antibody, V domains shown) V domain 1: EVQLVQSGGGLVQPGRSLRLSCAASGFTFGEYAMHWVRQAPGKGLEWVSGISWNSGSIDYADSVKGRFTISRDNAKNSLYLQMNSLRAEDTALYYCAKDMGEAVAGTHYGMDVWGQGTMVTASS V domain 2: QSALTQPPSVSVSPGQTASIPCSGDKLGDIYACWYQQKPGQSPVLVIYQDTKRPSGIPERFSGSNSGNTATLTISGTQAMDEADYYCQAWGSTTAKVFGGGTKLTVP | binds |
| SEQ ID NOs: 621/625 (HCVR/LCVR) (antibody, V domains shown) VH: QVQLVQSGAEVKKPGASVKVSCKVSGYTLTELSMHWVRQAPGKGLEWMGGFDPEDGETIYAQKFQGRVTMTEDTSTDTAYMELSSLRSEDTAVYYCATAYSVDTAMVRGVGYWGQGTLVTVSS VL: not shown | binds |
| SEQ ID NOs: 605/609 (HCVR/LCVR) (antibody, V domains shown) VH: not shown VL: QTVVTQPPSVSVSPGQTARITCSGDALPKQYAYWYQQKPGQAPVLVIYKDSERPSGIPERFSGSSSGTTVTLTISGVQAEDEADYYCQSADSSGTYRVFGGGTKLTVL | binds |
| SEQ ID NOs: 557/561 (HCVR/LCVR) (antibody, V domains shown) VH: EVQLVESGGGVVQPGRSLRLSCAASGFTFSSYAMHWVRQAPGKGLEWVAVISYDGSYKYYADSVKGRFTISRDNSKNTLYLQMNSLTAEDTAVYYCAREGSRQWLVIYFDYWGQGTLVTVSS VL: AIRMTQSPSSLSASVGDRVTITCRASQSISSYLNWYQQKPGKAPKLLIYAASSLQSGVPSRFSGSGSGTDFTLTISSLQPEDFATYYCQQSYTTFIYTFGQGTKLEIK | binds |
| 001_P1G11 (antibody, V domains shown) VH: EVQLVQSGTEVKKPGASVKVSCKASGYTFPGYYIHWVRQAPGQGLEWMGWINPNSGVAKSAQKFQGRVTMTRDSSISTVYLDVTSDDTAVYYCARDLVWATVSGTMDVWGQGTTVTVSS VL: QSALTQPPSASGSPGQSVTISCTGTSSDIGTYNYVSWYQQHPGKAPKLMIYEVTKRPSGVPDRFSGSKSGNTASLTVSGLQADDEGDYYCSSYVGNNNWVFGGGTKLTVL | binds |
| SEQ ID NOs: 57/61 (HCVR/LCVR) (antibody, V domains shown) VH: not shown VL: QSVLTQPASVSGSPGQSITISCTGTSSDVGGYNYVSWYQQHPGKAPKLMIYDVSNRPSGVSNRFSGSKSGNTASLTISGLQAEDEADYYCSSYTSSSTRHWVFGGGTKLTVL | binds |
| SEQ ID NOs: 661/665 (HCVR/LCVR) (antibody, V domains shown) VH: EVQLVESRAEMKKPGESLKISCKGSGYTFTNHWIAWVRQMPGKGLEWMGIIYPGDSDTRYSPSFEGQVTISADKSISTAYLQWSSLKASDTAMYYCARRGYTYGADFYGLDVWGQGTRVTVSS VL: not shown | binds |
| SEQ ID NOs: 421/425 (HCVR/LCVR) (antibody, V domains shown) VH: EVQLVQSGAEVKKPGASVKVSCKASGYTFTSYDINWVRQATGQGLEWMGWMNPNSGNTGYAQKFQGRVTMTRNTSISTAYMELSSLRSEDTAVYYCARVVGSSWYPVDAFDIWGQGTRVTVSS VL: QSVLTQPASVSGSPGQSITISCTGTSSDVGGYNYVSWYQQHPGKAPKLMIYDVSNRPSGVSNRFSGSKSGNTASLTISGLQAEDEADYYCSSYTSSSTLVVFGGGTKLTVL | binds |
| SEQ ID NOs: 477/481 (HCVR/LCVR) (antibody, V domains shown) VH: QVQLVESGGGVVQPGRSLRLSCAASGFTFSSYAMHWVRQAPGKGLEWVAVISYDGSNKYYADSVKGRFTISRDNSKNTLYLQMNSLRAEDTAVYYCARSASGSYYGAFDYWGQGTLVTVSS VL: QTVVTQPASVSGSPGQSITISCTGTSSDVGGYNYVSWYQQHPGKAPKLMIYDVSNRPSGVSNRFSGSKSGNTASLTISGLQAEDEADYYCSSYTSSSTLGLYVFGTGTKVTVL | binds |
| SEQ ID NOs: 525/529 (HCVR/LCVR) (antibody, V domains shown) VH: QVQLQESGPGLVKPSGTLSLTCAVSGGSISSSNWWSWVRQPPGKGLEWIGEIYHSGSSNYNPSLKSRVTISVDKSKNQFSLKLNSVTAADTAVYYCAGRYCSGGRCGWFDPWGQGTLVTVSS VL: QSVLTQPASVSGSPGQSITISCTGTSSDVGSYNLVSWYQQHPGKAPKLMIYEASKRPSGISNRFSGSKSGNTASLTISGLQAEDEADYYCCSYAGSSTWVFGGGTKPTVL | binds |
| SEQ ID NOs: 305/309 (HCVR/LCVR) (antibody, V domains shown) VH: EVQLVESGGGLVKPGGSLRLSCAASGFTFGSYSMSWVRQAPGKGLEWVSSISRSSSYIYNADSVRGRLTISRDNAKNSLYLQMNSLRVEDTAVYYCARDQPLPDILTGYYTGPLDYWGQGTLVTVSS VL: not shown | binds |
